According to the supplement of paper PMC10567573:
± gives the standard deviation.

Test: protein stability index of a GFP-peptide fusion (GPS, HEK-293T) (PSI 1-6); higher = more stable
[1] = treatment: DMSO, c terminus: a fixed tail appended
[2] = treatment: MLN4924 1 uM, 8 h, c terminus: a fixed tail appended
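Note: 24-mer peptide tiles fused after GFP, lentivirally expressed, FACS-sorted into six equal bins by GFP/DsRed ratio, decoded by Illumina sequencing, PSI is the read-weighted mean bin number.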

Sequence	protein stability index [1]	protein stability index [2]	protein stability index (treatment: DMSO, c terminus: native)	protein stability index (treatment: MLN4924 1 uM, 8 h, c terminus: native)
EACMTHLHYKWIPVEDSHTADISS [DUSP5]	3.53 ± 0.23	3.63 ± 0.11	–	–
DKTCSKTKNKSKHALRKKQLKRQK [FAM9B]	4.49 ± 0.21	4.59 ± 0.23	–	–
EEIDVDGKFIRLKNTSEQDQPMGG [LMNB1]	5.15 ± 0.46	5.47 ± 0.43	–	–
FLELAVGQRIRRGSIGVWHYICPR [SLC6A17]	2.99 ± 0.97	2.18 ± 0.5	–	–
RVKFKSQQHRQGRSHHLEMVIQLL [PTGFR]	2.44 ± 0.19	2.21 ± 0.17	–	–
ARGRHVGSSETNLLQHLLEACGRC [PYCR3]	2.71 ± 0.88	3.17 ± 1.4	–	–
VNSNKVVMSGVKCSGTELSLAHCR [LOXL2]	3.38 ± 1	2.95 ± 0.43	–	–
EKQLAKKEQSKELQMKLEKLREKE [FAM50A]	5.34 ± 0.35	5.17 ± 0.39	–	–
GSSDKVYAHQMVRTDSREQKLDAF [MLH1]	4.12 ± 0.13	4.13 ± 0.27	–	–
TKTEDRELVLRKDCPKIVEPHGKM [ZSCAN9]	4.79 ± 0.083	4.72 ± 0.28	–	–
LKMSYSRGLIPVKRGPSSRSGGPP [RBMY1A1]	2.95 ± 0.25	3.16 ± 0.37	–	–
KKTMSTFHNLVSLNLNYNCISDEL [FBXO39]	2.09 ± 0.21	2.18 ± 0.22	–	–
LLDSMCPASTPSVLSSEQEFQMFP [ETS2]	3.94 ± 0.16	4.07 ± 0.28	–	–
DTFKVPKEMFTVGCCVFAFLVGLL [SLC6A17]	2.3 ± 0.51	2.21 ± 0.6	–	–
VSCLGLGTWVTFGGQITDEMAEQL [KCNAB2]	2.32 ± 0.27	2.51 ± 0.3	–	–
AAAEFSSLLRRIKGKLFTWNILKT [SLC35F2]	3.05 ± 0.56	2.94 ± 0.28	–	–
VARTHLTEDTPKVNADIEKVNQNQ [NSDHL]	5.08 ± 0.22	5.06 ± 0.11	–	–
GGSRGAPGLLMAVGQDLYCYSYS [DCAF4]	–	–	3.16 ± 0.42	3.1 ± 1.5
IIIRSEVPGIFCAGADLKERAKMS [AUH]	2.36 ± 0.43	1.95 ± 0.21	–	–
REARKRALARKQAQEQLRPQTPEP [RSPH3]	5.04 ± 0.28	5.12 ± 0.15	–	–
NSFGLRFGKREAAPGNHGRSAGRG [KISS1]	4.44 ± 0.4	4.4 ± 0.46	–	–
QYWLDGKIIAVGVIDILPNCVSSV [ATE1]	2.93 ± 0.54	2.95 ± 0.66	–	–
KRFQLTKLPPYLIFCIKRFTKNNF [USP39]	2 ± 0.31	2.78 ± 0.81	–	–

Sequence	protein stability index [1]	protein stability index [2]	protein stability index (treatment: DMSO, c terminus: native)	protein stability index (treatment: MLN4924 1 uM, 8 h, c terminus: native)
LQGCSSIGLRLVLEYLYTANVTLS [KLHL14]	3.07 ± 0.45	2.93 ± 0.67	–	–
KHPQPAPAVTPDPWGVQGGQESEV [PKD2L1]	5.24 ± 0.22	4.97 ± 0.21	–	–
ADIPQDQLVVMHPTPQVDELDILP [BTBD10]	5.11 ± 0.17	5.24 ± 0.15	–	–
SSQKQHSFTSSDKTIKSFFPHSGK [C8orf76]	3.9 ± 0.085	4.15 ± 0.14	–	–
SLHKGAKRKGIKSSIGRLFGKKEK [PPFIA4]	3.6 ± 0.46	3.73 ± 0.18	–	–
SKRKAETWKKNRRQLAYSTVGTPD [STK38L]	4.02 ± 0.41	4.33 ± 0.5	–	–
GEESSKAKEVTIAKADTTSTVTPV [EHMT1]	5.55 ± 0.27	5.45 ± 0.078	–	–
RDSTARRPRPQGRSVSEPRDQHPQ [RTN2]	5.305 ± 0.037	5.23 ± 0.098	–	–
KNHVGKPLLKMDLNSEQAEQLERI [FAM98B]	4.8 ± 0.16	4.67 ± 0.19	–	–
FYSTSSGLANGLQLLCPWAPLSGP [VENTX]	2.88 ± 0.4	2.54 ± 0.55	–	–
NYLIFSQKPEFQDLSVEERSFVEK [RHOBTB3]	3.61 ± 0.16	3.69 ± 0.27	–	–
WDERGRAAAYSPSEALLYALVHDH [ANKRD9]	3.02 ± 0.37	2.95 ± 0.27	–	–
WEQPWASEVFGPERMPPSGAARSF [PXN]	3.73 ± 0.33	3.45 ± 0.11	–	–
ANAFQQEAQTSGKERLLLSAAVPA [CHIT1]	4.03 ± 0.33	4.18 ± 0.28	–	–
VEPGTPPLDILAQPLEASNPALEG [DNAAF3]	5.35 ± 0.14	5.36 ± 0.21	–	–
FGGQNAHNQIAIYAHQPRTADEIP [FUT8]	3.43 ± 0.23	3.65 ± 0.33	–	–
FGYRPYDKNISPRENILVSLGAVG [SCD]	2.03 ± 0.44	2.75 ± 0.53	–	–
MYDLPKKEDALLYQSKGYNDDYYE [EMD]	4.27 ± 0.15	4.25 ± 0.22	–	–
KTVLMIAIQLLSRMEYVHSKNLIY [CSNK1G1]	3.04 ± 0.1	3.23 ± 0.54	–	–
ERTQLRLESLEDTHIMKGEDDALS [TRIB1]	5.27 ± 0.21	5.34 ± 0.41	–	–
YAIKRSKKPLAGSVDEQNALREVY [WEE1]	3.3 ± 0.32	3.16 ± 0.25	–	–
TGVVEFVRKEDMTYAVRKLDNTKF [SRSF1]	3.02 ± 0.3	3.26 ± 0.29	–	–
WFPLHLSRILKKTVYNEMDKNRCE [EDNRA]	2.6 ± 0.84	1.98 ± 0.4	–	–

Sequence	protein stability index [1]	protein stability index [2]	protein stability index (treatment: DMSO, c terminus: native)	protein stability index (treatment: MLN4924 1 uM, 8 h, c terminus: native)
QTGEWQNIAIMTEEPELSPAYLIS [GFOD1]	3.05 ± 0.17	3.25 ± 0.22	–	–
LDYTADEDGVWYSVAPMNVRRGLA [KLHL12]	2.41 ± 0.81	2.99 ± 0.47	–	–
FVKILKDFPEEDDPTNWLRCYYYE [NCF4]	2.25 ± 0.28	2.55 ± 0.6	–	–
TDFKDKIVLDVGCGSGILSFFAAQ [CARM1]	2.3 ± 0.43	2.27 ± 0.27	–	–
DAGPMVVHCSAGVGRTGCFIVIDA [PTPRD]	2.73 ± 1.3	2.7 ± 0.76	–	–
FPKNRVLEGVIDRYQQSKAAALKC [TRIM9]	2.78 ± 0.14	3.2 ± 0.19	–	–
APLGYKEPERQVQHEESTEGEADH [UFD1]	5.55 ± 0.22	5.5 ± 0.3	–	–
PDEAARARLLQEGGGGVAAVVVLD [DUSP5]	4.3 ± 0.46	4.57 ± 0.13	–	–
SHPRVQSGCDKEALLTGGGSENRN [RNF180]	4.77 ± 0.31	4.65 ± 0.24	–	–
CALGDHGCEHSCVSSEDSFVCQCF [MATN2]	4.25 ± 0.35	4.33 ± 0.3	–	–
ETREYAPPSRGHGYRDYGHSRRHE [RBMY1A1]	4.58 ± 0.35	4.71 ± 0.13	–	–
SNHSWNTQTWCTQSWNNQAWNSPF [NANOGP8]	2.24 ± 0.23	2.19 ± 0.18	–	–
MPALEGAPHTPPLPRRPRKGSSEL [RNF208]	5.11 ± 0.27	5.21 ± 0.22	–	–
GSSASTSPAPLDTCPSSSTASSIS [DYRK1B]	5.22 ± 0.12	5.3 ± 0.078	–	–
SISEEGFHYLVFDLVTGGELFEDI [CAMK2B]	2.32 ± 0.42	2.24 ± 0.4	–	–
TNSTPLRAACFDGHLEIVKYLVEH [FEM1C]	2.28 ± 0.49	2.39 ± 0.55	–	–
PPRREPLPSRRDVYLSPRDDGYST [RBMX]	4.09 ± 0.16	4.23 ± 0.29	–	–
TSGGLLSEAPNEKLFFVDTGSKEK [NOP53]	4.92 ± 0.25	4.84 ± 0.68	–	–
IQLGVTPPGYSAWIKEEAAERYLY [SLC6A17]	2.31 ± 0.25	2.36 ± 0.15	–	–
NIADIEEKRGFTSHFVFVIEVKTK [NCF4]	2.47 ± 0.74	2.62 ± 0.44	–	–
YCVPRGNRRRFRVRQPILQYRWDM [BEX1]	2.46 ± 0.21	2.55 ± 0.17	–	–
EGNECKKMDMSVLEISGIIMSRVN [PHTF1]	2.55 ± 0.37	2.46 ± 0.31	–	–
PTKADTEKWAEGGGHSRERADEPQ [CHGB]	5.46 ± 0.32	5.36 ± 0.19	–	–

Sequence	protein stability index [1]	protein stability index [2]	protein stability index (treatment: DMSO, c terminus: native)	protein stability index (treatment: MLN4924 1 uM, 8 h, c terminus: native)
WGPLQDSLEHTLRVAIAHYQDDPD [TSPAN10]	3.54 ± 0.28	3.69 ± 0.22	–	–
TGPAWNVLMWTMLFLGQGIQVSLY [SOAT2]	3.38 ± 0.42	3.26 ± 0.34	–	–
SFGNCTYNLTILDCLQGIRKGLQH [CDC14A]	2.38 ± 0.36	2.33 ± 0.44	–	–
LKPTFTKQQIANLDKQAKLSRAYD [USP39]	3.61 ± 0.11	3.74 ± 0.16	–	–
TPEVAAAPKPDAAPSIDLFSTDAF [SNAP91]	4.75 ± 0.23	4.75 ± 0.12	–	–
IPDAFWWAVVTMTTVGYGDMKPIT [KCNA4]	3.8 ± 0.42	3.53 ± 0.16	–	–
AQTTSEAAMEGATLDQTTSEEAPG [HDAC6]	5.64 ± 0.28	5.54 ± 0.24	–	–
EAIKNEMNVMLKSSPVDLVTATDQ [IMPA1]	4.21 ± 0.11	4.67 ± 0.17	–	–
LLPLQREPLYNWQATKASLKERFA [BTBD1]	2.8 ± 0.22	2.82 ± 0.2	–	–
GEREAIQKSVTRSCLLEEEEESGE [POP5]	5.53 ± 0.33	5.65 ± 0.18	–	–
GDPLNCHSYLSGYISLLLRAEPYP [NR2F2]	2.76 ± 0.82	2.71 ± 0.65	–	–
LLRLSKHGPGHETPMTIPEFFRES [ACSBG2]	2.73 ± 0.1	3.06 ± 0.25	–	–
ATTISTSEDGSYGTDVTRCICGFT [KMT2E]	3.46 ± 0.21	3.6 ± 0.39	–	–
AGCCQVFDALDDYEHHYHTLHGNV [ZNF511]	2.84 ± 0.35	2.88 ± 0.23	–	–
GGFGSMLRALGAQIEKTTNREACR [SDE2]	3.27 ± 0.41	3.34 ± 0.13	–	–
LLLGLKDREGYTSFWNDCISSGLR [GOLPH3]	2.43 ± 0.5	2.11 ± 0.23	–	–
EFIRDILIHPELNEGLMKWENRHE [ELF3]	2 ± 0.27	2.3 ± 0.48	–	–
LPKISDPNFVKDLEEDLYELFKKD [PI4K2A]	3.72 ± 0.24	3.88 ± 0.31	–	–
QWGTVCDDDFSIHAAHVVCRELGY [LOXL2]	2.47 ± 0.36	2.38 ± 0.39	–	–
GTAHIPPTMHLESPALQVMGPAQE [ZNF449]	4.78 ± 0.25	4.73 ± 0.17	–	–
